Reference: the supplement of paper PMC10201428
± gives the standard deviation of the averaged measurements.

Legend:
[1] = system: VchCAST RNA-guided transposition machinery (E. coli BL21(DE3) host, lacZ target); experiment: relative integration efficiency (T-RL orientation) vs wild-type transposon end (log2 (normalized fold change)); transposon end mutated: right end (5 bp flank + 75 bp right end); higher = more efficient transposition
How it was run: (§1)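 In E. coli BL21(DE3), a T7-driven effector plasmid was paired with a pUC57 mini-transposon donor containing 1549 left-end or 1849 right-end barcoded transposon variants. Cells grew on plates with 0.1 mM IPTG at 37°C for 18 h. Relative integration efficiency was derived from Illumina reads of genomic integration junctions against input plasmids, as a log-transformed output/input barcode fold change normalised to reference barcodes.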

[2] = system: VchCAST RNA-guided transposition machinery (E. coli BL21(DE3) host, lacZ target); experiment: relative integration efficiency (T-LR orientation) vs wild-type transposon end (log2 (normalized fold change)); transposon end mutated: right end (5 bp flank + 75 bp right end); higher = more efficient transposition
How it was run: as §1

Sequence	relative integration efficiency (log2) [1]	relative integration efficiency (log2) [2]
ACATTTGTTGATACAACCATAAAATCATCATTACACCCATAAATTGATAATTATCCCACCCCATTTAACTATAACGCTCTGATCATAGTCAGACCAACATTGCTACGACCCGTATTCGCACCGACAC	-2.81 ± 0.49	0.992 ± 0.31
ACATGGGTTGATACAACCATAAAATGATAATTACACCCATAAATTGATAATTATCACACCCATAAATTGATATTGCCTCTGATCATAGTCAGACCAACATTGCTACGACCCGTATTCGCACCGACAC	-6.44 ± 0.3	-5.51 ± 0.64
ACATTTGTTGATACAACCATAAAATGATAATTACTCTGATCATAGTCAGACCAACATTGCTACGACCCGTATTCACCCATAAATTGATAATTATCACACCCATAAATTGATATTGCCGCACCGACAC	-3.12 ± 0.47	0.261 ± 0.085
ACATTTGTTGATACAACCATAAAATGATAATTACCACCCCTAAATTGATAATTATCACACCCATTTAACTATAACGCTCTGATCATAGTCAGACCAACATTGCTACGACCCGTATTCGCACCGACAC	-3.13 ± 0.18	-0.321 ± 0.18
ACATTTGTGGATCCAACCATAAAATGATAATTACACCCATAAATGGATAATTATCACACCCAATTTAACTATAACGCTCTGATCATAGTCAGACCAACATTGCTACGACCCGTATTCGCACCGACAC	-1.38 ± 0.18	1.18 ± 0.021
ACATTTGTTGCGACAACCATAAAATGATAATTACACCCATAAATTGATAATTATCACACCCATAAATTGATATTGCCTCTGATCATAGTCAGACCAACATTGCTACGACCCGTATTCGCACCGACAC	-0.447 ± 0.038	-1.69 ± 0.07
ACATTTGTTGATACAACCATAAAATCATAATTACCCCCATCAATTGATAATTATCCCACCCCATTTAACTATAACGCTCTGATCATAGTCAGACCAACATTGCTACGACCCGTATTCGCACCGACAC	-5.42 ± 0.086	-2.4 ± 0.19
ACATTTGTTGATACAACCATAAAAGGATAATTACACCCATAAATTGATAATTATCCCACCCAATTTAACTATAACGCTCTGATCATAGTCAGACCAACATTGCTACGACCCGTATTCGCACCGACAC	-0.818 ± 0.21	1.98 ± 0.22
ACATTTGTTGATACAACCATAAAATCATAATTACACCCATAAATTGATAATTATCCCACCCAATTTAACTATAACGCTCTGATCATAGTCAGACCAACATTGCTACGACCCGTATTCGCACCGACAC	-2.19 ± 0.14	1.64 ± 0.041
ACAAATGTTGATACAACCATAAAATGATAATTACACCCATAAATTGATAATTATCACACCCATAAATTGATATTGCCTCTGATCATAGTCAGACCAACATTGCTACGACCCGTATTCGCACCGACAC	0.215 ± 0.12	0.224 ± 0.075
ACATTTGTTGATACAACCATAAAATGATAATTACACCCATAAATTGATAATTATCACACCCATAAATTGATATTGCCTCAACCATAAAATGATAATTACTGATCATAGTCAGACCAAGCACCGACAC	-0.275 ± 0.21	-1.08 ± 0.72
ACATTTGTTGATACAACCATAAGTTGATATTTTCAACCATAAAGTGATATTTATCACACCCATAAATTGATAATTACTCTGATCATAGTCAGACCAACATTGCTACGACCCGTATTCGCACCGACAC	-0.109 ± 0.07	-0.0467 ± 0.44
ACATTTGTCGATACAACCATAAAATGATAATTACACCCATAAATTGATAATTATCACCCCCAATTTAACTATAACGCTCTGATCATAGTCAGACCAACATTGCTACGACCCGTATTCGCACCGACAC	-0.936 ± 0.32	2.59 ± 0.2
ACATTTGTTGATACAACCATAAAATGATAATTACAAACATAAATTGATAATTATCACACCCATAAATTGATATTGCCTCTGATCATAGTCAGACCAACATTGCTACGACCCGTATTCGCACCGACAC	-0.0203 ± 0.014	-0.426 ± 0.17
ACATTTGTGGATACAACCATAAAACGATAATTACACCCATAAATGGATCATTATCACACCCAATTTAACTATAACGCTCTGATCATAGTCAGACCAACATTGCTACGACCCGTATTCGCACCGACAC	-1.81 ± 0.3	0.737 ± 0.25
ACATTTGTTGATACAACCATTTTTTGATAATTACACCCATTTTATGATAATTATCACACCCATTTTATGATATTGCCTCTGATCATAGTCAGACCAACATTGCTACGACCCGTATTCGCACCGACAC	-1.61 ± 0.23	-1.01 ± 0.052
ACATTTGTTGATACAACCATAAAATGATTATTACACCCATAAATTGATAATGATGACACCGAATTTAACTATAACGCTCTGATCATAGTCAGACCAACATTGCTACGACCCGTATTCGCACCGACAC	-1.31 ± 0.35	2.38 ± 0.12
ACTATTGTTGATACAACCATAAAATGATAATTACACCCATAAATTGATAATTATCACACCCATAAATTGATATTGCCTCTGATCATAGTCAGACCAACATTGCTACGACCCGTATTCGCACCGACAC	0.151 ± 0.07	0.436 ± 0.12
ACATTTGTTGATACAACCATAAAAGGATAATTACCCCCATCAATTGATAATTATCACACCCAATTTAACTATAACGCTCTGATCATAGTCAGACCAACATTGCTACGACCCGTATTCGCACCGACAC	-2.86 ± 0.32	-0.104 ± 0.42
ACATTTGTTCATACAACCCTAAAATGATAATTACACCCATAAATTCATCATTATCACACCCAATTTAACTATAACGCTCTGATCATAGTCAGACCAACATTGCTACGACCCGTATTCGCACCGACAC	-5.84 ± 0.57	-3.3 ± 0.36
ACATTTGTTGATACAACCATATTTAGATAATTACACCCATATTAAGATAATTATCACACCCATATTAAGATATTGCCTCTGATCATAGTCAGACCAACATTGCTACGACCCGTATTCGCACCGACAC	-2.27 ± 0.31	-1.1 ± 0.36
ACATTTGTTGATACAACCCTAAAATGATAATTACACCCATAAATTCATAATTATCACACCCAATTTAACTATAACGCTCTGATCATAGTCAGACCAACATTGCTACGACCCGTATTCGCACCGACAC	-4.59 ± 0.4	-1.75 ± 0.15
ACATTTGTTCATACAACCCTAAAATGATAATTACACCCATAAATTGATCATTATCACACCCAATTTAACTATAACGCTCTGATCATAGTCAGACCAACATTGCTACGACCCGTATTCGCACCGACAC	-3.41 ± 0.23	-1.36 ± 0.72
ACATTTGTTGATACAACCATAAAATGATAATTAATAATTATTTCACCCATAAATTGATAATTATCACACCCATAAATTGATATTGCCTCTGATCATAGTCAGACCAACATTGCTACGACCCGTATTC	-3.8 ± 0.49	-2.62 ± 1.1
ACATTTGTTGATACAACCATAAAATGATAATTACACCCATAAATTGATAATTATCACACAACGAAATTGATATTGCCTCTGATCATAGTCAGACCAACATTGCTACGACCCGTATTCGCACCGACAC	-0.936 ± 0.18	2.18 ± 0.14
ACATTTGTTGATACAACCATCCCCTGATAATTACACCCATAAATTGATAATTATCACACCCATAAATTGATATTGCCTCTGATCATAGTCAGACCAACATTGCTACGACCCGTATTCGCACCGACAC	-2.13 ± 0.056	-1.78 ± 0.023
ACATTTGTTGATACAACCATAAAATGATAATTCACCCATAAATTGATAATTATCACACCCACATTTAACTATAACGCTCTGATCATAGTCAGACCAACATTGCTACGACCCGTATTCGCACCGACAC	-2.03 ± 0.22	1.31 ± 0.058
